Laboratory results published in FireProtDB (doi:10.1021/bi048182n).
Several values for one entry are separate records, joined by “and”; a condition that tells them apart may be missing. Identical values can stand only once.

Details: Bos taurus, pH 8.4, 23 °C, GdnHCl, HPLC, Tris-HCl 0.1 M, reversible: yes, whole UniProt chain shown

B1: Alpha-lactalbumin wild type, P00711 (protein)
chain: MMSFVSLLLVGILFHATQAEQLTKCEVFRELKDLKGYGGVSLPEWVCTTFHTSGYDTQAIVQNNDSTEYGLFQINNKIWCKDDQNPHSSNICNISCDKFLDDDLTDDIMCVKKILDKVGINYWLAHKALCSEKLDQWLCEKL
With B1 the denaturant m value (CaCl2 5 mM) was 2.1 kcal/mol/M and 2.4 kcal/mol/M, the “denaturant midpoint (higher = more stable)” value (CaCl2 5 mM) was 2.15 M and 1.4 M and the unfolding free energy (CaCl2 5 mM) was 4.52 kcal/mol and 3.36 kcal/mol. For the same protein, the denaturant m value was 2.3 kcal/mol/M and 3.4 kcal/mol/M, the “denaturant midpoint (higher = more stable)” value was 1.1 M and 0.4 M and the unfolding free energy was 2.53 kcal/mol and 1.36 kcal/mol.
